Experimental data published in paper PMC4739761, “AMPylation matches BiP activity to client protein load in the endoplasmic reticulum” (eLife, 2015).
Where no end group is shown, it is not given here.

B1: lucifer yellow-labeled BiP substrate peptide (HTFPAVLGSC) (peptide)
peptide: HTFPAVLGSC
modifications: also: lucifer yellow label, position not given here
notes: well-characterized BiP substrate peptide; also called LY-labeled substrate peptide; fluorescently-labeled substrate peptide
B2: hamster BiP (27-654, with a His6-tag) AMPylated in vitro to completion on Thr518 (natural protein)
chain: not shown
modifications: AMPylated threonine at 518 (single AMP)
notes: BiP (GRP78), Chinese hamster (Cricetulus griseus), residues 27-654; numbers count on the precursor with its signal peptide (mature BiP is 19-654); also called BiP-AMP; AMPylated BiP; source: E. coli M15, purified (Ni-NTA); not shown: His6, N-terminal, kept
B3: hamster BiP (27-654, with a His6-tag), unmodified (natural protein)
chain: not shown
notes: BiP (GRP78), Chinese hamster (Cricetulus griseus), residues 27-654; numbers count on the precursor with its signal peptide (mature BiP is 19-654); also called wildtype (wt) BiP; GRP78; source: E. coli M15, purified (Ni-NTA); unmodified BiP from mock in vitro AMPylation reactions without enzyme served as control in the functional assays; not shown: His6, N-terminal, kept

How the values were obtained:
Settings in all cases: both partners purified
[1] = biological target: B3; assay: fluorescence polarisation; competitive dissociation: pre-formed complex of BiP or BiP-AMP (40 µM) and LY-labeled peptide (1 µM) in 1 mM ADP, 400-fold excess (0.4 mM) of unlabeled peptide added at t = 0; single phase decay fit of the first 60 min
[2] = biological target: B2; assay: as above
[3] = biological target: B3; assay: fluorescence polarisation; steady state: 1 µM lucifer yellow-labeled peptide with BiP or BiP-AMP at 0-40 µM, 1 mM ADP, 24 hr at 30°C, FP buffer (37.5 mM HEPES-KOH pH 7.4, 125 mM KCl, 7 mM MgCl2, 0.5 mM CaCl2, 125 mM imidazole, 0.05% Triton X-100); read at room temperature
[4] = biological target: B2; assay: as above
[5] = biological target: B1; assay: fluorescence polarisation; competitive dissociation: pre-formed complex of BiP or BiP-AMP (40 µM) and LY-labeled peptide (1 µM) in 1 mM ADP, 400-fold excess (0.4 mM) of unlabeled peptide added at t = 0; single phase decay fit of the first 60 min

B1 showed a koff [1] of 0.000617 s⁻¹, a koff [2] of 0.00353 s⁻¹ and a Kd [3] of 16.7 µM. It also gave a Kd [4] of 11.5 µM.

For B2, the “half-life (t1/2) of the complex” value [5] was 3.3 min.

In the case of B3, the “half-life (t1/2) of the complex” value [5] is reported as 19.3 min.

HTFPAVL (also called unlabeled peptide) [unlabeled substrate peptide (HTFPAVL)]: binds [1]; binds [2].
